According to PMC3492541 (Nature structural & molecular biology, 2012):
Numbering of substitutions follows the chain as printed.

B1: GST 7D (GST tail phosphomimetic in both zone 1 and zone 2) (domain or fragment, human, UniProt O14777 1-80, looked up)
chain: MKRSDVSDGGAGRLDMQELRSQDVNKQGLYTPQTKEKPTFGKLDINKPTSERKVDLFGKRTDGHGSRNDQLGIFSSSEKI
B2: GST tail phosphomimetic in zone 2 (domain or fragment, human, UniProt O14777 1-80, looked up)
chain: B1 chain with D44S, D55S, D62S, D69S
B3: GST 4D (GST tail phosphomimetic in zone 1) (domain or fragment, human, UniProt O14777 1-80, looked up)
chain: B1 chain with D5S, D8S, D15S

target: taxol-stabilized microtubules (UniProt Q6B856 1-439); test: co-sedimentation

First: B1
Second: B2
The “reduction of microtubule binding relative to GST 1–80” value of the first is higher: 80% for the first, 20% for the second.

B3 was tested, and the “reduction of microtubule binding relative to GST 1–80” value was 60%.
